# Assay: yeast display, Sf9 membrane polyspecificity reagent, FACS + sequencing; frameworks hold sequencing errors
# Procedure, shortened: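 In a synthetic yeast display library (Saccharomyces cerevisiae BJ5465), nanobody expression was induced with galactose for 36–48 hours. FACS gates were set low and high (top ~1%) using anti-HA fluorescence for expression and streptavidin fluorescence for binding of the Sf9 membrane reagent. Each polyreactivity label is drawn from the gate of origin.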
row,Sequence,polyreactivity (PSR sort gate)
1,QVQLVESGGGIVQAGGSLRLSCAASGFIFHRNAMGWYRQAPGKERELVASITKRGGNTYYADSVKGRFTISRDTAKNTDFLQMTSLNPEDTGVYYCATQLWGWDWKRDYWGQATQVTVSS,high polyreactivity
2,QVQLVESGGGIVQAGGSLRLSCAASGFIFLPYAMGWYRQAPGKERELVARISRSGASTYYADSVKGRFTISRDNAKNTVYLQMNSLKPEDTAVYYCNAVTSWPRRDFDYWGQGTQVTVSS,high polyreactivity
3,QVQLVESGGGIVQAGGSLRLSCAASGFIFRYYAMGWYRQAPGKERELVAAISWSGGSTYYADSVKGRFTISRDNAKNTVYLQMNSLKPEETAVYYCAAEPTGWVWYAGYGYYWGQGTQVTVSS,high polyreactivity
4,QVQLVESGGGIVQAGGSLRLSCAASGFTFGDYVMGWYRPAPGNERELVAAITTSGTRTSYADSVKGRFTISRDNAKNTVFLQMNSLKPEDTAVYYCAAEHTNYYYFWQAHYYWGPGTQVTVSS,high polyreactivity
5,QVQLVESGGGIVQAGGSLRLSCAASGFTFHTYAMGWYRQAPGKERELVAAISYSGGNTYYADSVKGRFTISRDNAMNTVYLQMNSLKPEDTAVYYCAAQSYYRYYWGQGTQVTVSS,high polyreactivity
6,QVQLVESGGGIVQAGGSLRLSCAASGFTFNRNAMVWYRQAPGKERELVAAISWSGGSTYYADSVKGRFTISRYNAKNTVYLQMNSLKPEDTAVYYCAKGYRRVYGPFYYWGQGTQVTVSS,low polyreactivity
7,QVQLVESGGGIVQAGGSLRLSCAASGFTFRTYTQGWYRQAPGKERELVAAIRSSGGGTYYADSVKGRFTISRDNAKNTVYLQMNSLKPEDTAVYYCIAVRYNSVGYDFWGQGTQVTVSS,high polyreactivity
8,QVQLVESGGGIVQAGGSLRLSCAASGFTFYLYAMGWYRQAPGKERELVAAISRSGGYTYYADSVKGRFSISRDNAQNTVYLQMNSLKPEDTAVYYCNARWRSGPRAYDYWGQGTQVTVSS,high polyreactivity
9,QVQLVESGGGIVQAGGSLRLSCAASGFTYSDYAMGWYRQAPGKERELVAGISSGGSTNYADSVKGRFTISRDNAKYTVYFQMNSLKQVDTAVYYCAAYLYATWSYFFTWLDFWGQGTKVTVSS,high polyreactivity
10,QVQLVESGGGIVQAGGSLRLSCAASGGTFPRYAKGWYRQAPGKEREFVAAISGSGGSTYYADSVKGRFTISRDNAKNTVLLQMNSLKPEDTAVYYCNKVPVYTPSYYWGQGSQVTVSS,low polyreactivity
11,QVQLVESGGGIVQAGGSLRLSCAASGIIFGYYAMGWYRQAPGKEREMVAAINQDGSSTYYADSVKGRFTISRDYAKNTVYLQMNSLKPEDTAVFYCNARGVPRQDARMGYWGQGTQVTVSS,low polyreactivity
12,QVQLVESGGGIVQAGGSLRLSCAASGIIFHFNDMGWYRQAPGKERELVAAITSGGSTNYADSVKGRFTISRDNAKNTVDLQMNSLKPEDTAVYYCAARRGLRLFAYRHGYWGQGTQVTVSS,low polyreactivity
13,QVQLVESGGGIVQAGGSLRLSCAASGIIFLDYVMVWYRQAPGKERELVAAINSGGSTYYADSVKGRFTISRDNAKNTVYLQMNSLIPEDTAVYYCAADDYYKFDYWGQGTQVTLSS,low polyreactivity
14,QVQLVESGGGIVQAGGSLRLSCAASGIIFWNYAMGWYRQAPGKERELVAAITDGGSTYYADSVKGRFTISRDNEKNTVYLQMNSLKPEDNAVYYCNTDWAYLSDYWGQGTQVTVSS,low polyreactivity
15,QVQLVESGGGIVQAGGSLRLSCAASGITFGSYVMGWYRQAPGKERELVAAINIGGGTYYADSVKGRFTISRDNAKNTVYLQMISLKPEDTAVYYCARDFYWYYRAARLDYWGQGTQVTVSS,high polyreactivity
16,QVQLVESGGGIVQAGGSLRLSCAASGITFKGYTMGWYRQAPGKERELVATISRGGRTYADSVKGRFTISRDNAKNTVYLQMNSLKPEDTAVYYCAAQAERYGYEYWGQGTQVTVSS,low polyreactivity
17,QVQLVESGGGIVQAGGSLRLSCAASGITLINYAMGWYRQAPGKERELVAAISTSGSSTYYADSVKGRFTISRDNAKNTVYLQMNSLKPEDTAVYYCAAELDVYSLFGYWGQGTQVTVSS,low polyreactivity
18,QVQLVESGGGIVQAGGSLRLSCAASGLIFSRNAMGWYRQAPGQERELVAAISTGGSTYYADSVKGRFTISRDNAKNTGYLQMNSLKPEDTAVYYCAAAPGYIYEYWGQGTQVTVSS,low polyreactivity
19,QVQLVESGGGIVQAGGSLRLSCAASGLTFQVNAMGWYRQAPGKERELVAGITFSGGSTYYADSVKGRFTISRDNAKNTVYLQMNSLKPEDTAVYYCAADARFYAYYYWGQGTQVTVSS,low polyreactivity
20,QVQLVESGGGIVQAGGSLRLSCAASGLTFRRNAMGWSRQAPGKERELVAAISSGGVRTYYADSVKGRFTISRDNAKNTVYLQMNSLKPEDTAVYYCAKDDLLVVRNVWFDYWGQGTQVTVSS,low polyreactivity
21,QVQLVESGGGIVQAGGSLRLSCAASGNIFGGYAMGWYRQAPGKERELVAAISQRGGITYYADSVKGRFTISRDNAKNTVYLQMNSLKPEDTAVFYCAKRGPYGWYGAYDYWGQGTQVTVSS,low polyreactivity
22,QVQLVESGGGIVQAGGSLRLSCAASGRIFATYAMGWYRQAPGKERELVAAIRSDGNTKYADSVKGRFTISRDNAKNTVYLQMNSLKPEDTAVYYCAAYARYAGVLYDYWGQGTQVTVSS,high polyreactivity

row,Sequence,polyreactivity (PSR sort gate)
1,QVQLVESGGGIVQAGGSLRLSCAASGRIFAYNAMGWYRQAPGKDRELVAAISSGGNTYYADSVKGRFTISRDNAKNTVYLQMYRLKPEDTAVYYCNAGVGWHRYYSNYDYWGQGTQVTVSS,low polyreactivity
2,QVQLVESGGGIVQAGGSLRLSCAASGRIFDRYAMGWYRQAPGTERELVAAITGSGGRTYYADSVKGRFTISRDNAKNTVYLQMNSLKPEDTAVYYCARALGQRGYVYWGQGTQVTVSS,high polyreactivity
3,QVQLVESGGGIVQAGGSLRLSCAASGRIFDWYVMGWYRQAPGKERELVAAINSGVSTKYADSVKGRFTISRDNAKNTVYLQMNSLKPEDTAVYYCAAQSFSDYRRTGRKSSYYYWGQGTLVTVSS,low polyreactivity
4,QVQLVESGGGIVQAGGSLRLSCAASGRIFGIYAMGWYRQAPGKERELVASITDGTITNYADSVKGRFTISRDNAKYTVYLQMNSLKPEDTAVYYCAAGTQAHAYVVRPIEMDYWGQGTQVTVSS,low polyreactivity
5,QVQLVESGGGIVQAGGSLRLSCAASGRIFGYYAMGWYIQAPGNERELVASISSSGGSTYYADSVKGRFTISRDNAKNTVYLQMKSLKPEDTAVYYCNTASNRYQGWRAEFDYWGQGSQVTVSS,low polyreactivity
6,QVQLVESGGGIVQAGGSLRLSCAASGRIFRGYGMGWYRQAPGKERELVAAITSRGGSTYYADSVKGRFTISRDNAKNTVYLQMNSLKPEDTAVYYCAAVGVGYPGHKYYYWGQGTQVTVSS,high polyreactivity
7,QVQLVESGGGIVQAGGSLRLSCAASGRIFRSYTMGWYRQAPGKERELVAAISWTGGRTYYADSVKGRFTISRDNAKNTVYLQMNSLKPEDTAVYYCAATNRYYIYDYWGQGTQVTVSS,high polyreactivity
8,QVQLVESGGGIVQAGGSLRLSCAASGRIFSKNTMGRYRKAPGKERELVAAIRSRAGSTYYADSVKGRFTISRDNAKNTVYLQMNSLIPEDTAVYYCAVPWFRSVDFDYWGQGTQVTVSS,low polyreactivity
9,QVQLVESGGGIVQAGGSLRLSCAASGRIFVGYAMVWYRQAPGKERELVAAISRGGSTNYADSVKGRFTISRDNAKNTVYLQMNSLKPEDTAVYYCAKTYRTRWWGNGGDFWGQGTQVTVSS,high polyreactivity
10,QVQLVESGGGIVQAGGSLRLSCAASGRIISGYVMGWYRQAPGKERELVAAITRSGGSTNYADSVKGRFTISRDNAKNTVYLQMNSLKPEDTAVYYCNAVGRYYRVANGNYDYWGQGTQVTVSS,high polyreactivity
11,QVQLVESGGGIVQAGGSLRLSCAASGRIIYNYGLGWYRQAPGKERELVARITTGGRTNYADSVKGRFTISRDNAKNTVYVQMNSLKPEDTAVYFCNAVGYHSRWYYYNYDYWGQGTQVTVSS,low polyreactivity
12,QVQLVESGGGIVQAGGSLRLSCAASGRILVSNTMGWYRQAPGKERELVAGIRRGGSTDYADSVKGRFTISRDNAKNTVYLQMNSLKPEDTAVYYCNARYSNGYTKLGYWGQGTQVTVSS,low polyreactivity
13,QVQLVESGGGIVQAGGSLRLSCAASGRNFVRNAMGWYRQAPGKERELVAAISGGGGNTYYADSVKGRFTISRDNAKNTVYLQMYSLKPEDTAVYYCNALAYGYWYRYYYWGLGTQVTVSS,high polyreactivity
14,QVQLVESGGGIVQAGGSLRLSCAASGRTFLYNAMGWYRQAPGKERELVAAISKSGGSTYYADSVKGRFTISRDNAKNTVYLLMNSLKPEESAVYYCAKVGGYRGRPSFGDWGQGTQVTVSS,high polyreactivity
15,QVQLVESGGGIVQAGGSLRLSCAASGRTFMLYAMGWYRQAPGKERELVASIDRNGGRTYYADSVKGRFTISRDNAKNTVYLQMNSLIPEDTAVYYCAARWYDYGYWGQGTQVTGSS,high polyreactivity
16,QVQLVESGGGIVQAGGSLRLSCAASGRTFVVNDMGWYRQAPGKERELVAAINYNAGSTFYADSVKGRFTISRDNAKNTVYLQMNSLKPEDTAVYYCATVVYGYVEYDYWGQGTEVTVSS,low polyreactivity
17,QVQLVESGGGIVQAGGSLRLSCAASGSIFDNAMGWYRQAPGKERELVAAITSGGITNYADSVKGRFTISRDNAKNTVYLQMNSLKPEDTAVYYCNTLSPTQTKYDYWGQGTKVTVSS,low polyreactivity
18,QVQLVESGGGIVQAGGSLRLSCAASGSIFDSYTMGWYRQAPGKERELVATINRSGGSTYYADSVKGRFTISRDTAKNTVYLQMNSLKPEDTAVYYCATVYPYTPYSSWRSKYDYWGQGTQVTVSS,low polyreactivity
19,QVQLVESGGGIVQAGGSLRLSCAASGSIFGFYALGWYRQAPGKERELVAAISNSAGSTFYADSVKGRFTISRDNAKNTVYLQMNSLKPEDTAVYYCAAEGEFSDWQHQYVVYWYDYWGQGTQVTVSS,high polyreactivity
20,QVQLVESGGGIVQAGGSLRLSCAASGSIFRRYATGWYRQAPGKERELVAAISSGGSTYADSVKGRFTISRDNAKNTVYLQMNSLKPEDTAVYYCAVDWAQEDGYWGQGTQVTVSS,low polyreactivity
21,QVQLVESGGGIVQAGGSLRLSCAASGSIFRYNVMGLYRQAPGKERELVAGITRIGGSTYYADSVKGRFTISRDNAKNTVYLQMNSLKQEDTAVYYCGTARFSYPGPFGWLDEYYYWGQGTQVTVSS,low polyreactivity

# — the nanobody polyreactivity screen of Harvey et al. (2022)
